Reference: patent US20090018093

Key:
[1] = tested on: Immunoglobulin E (IgE) (Homo sapiens), P01854-1; test: filter
[2] = target: T1, Immunoglobulin E (IgE) (Macaca fascicularis) (UniProt A0A7N9DC98); test: inhibition
T1 sequence: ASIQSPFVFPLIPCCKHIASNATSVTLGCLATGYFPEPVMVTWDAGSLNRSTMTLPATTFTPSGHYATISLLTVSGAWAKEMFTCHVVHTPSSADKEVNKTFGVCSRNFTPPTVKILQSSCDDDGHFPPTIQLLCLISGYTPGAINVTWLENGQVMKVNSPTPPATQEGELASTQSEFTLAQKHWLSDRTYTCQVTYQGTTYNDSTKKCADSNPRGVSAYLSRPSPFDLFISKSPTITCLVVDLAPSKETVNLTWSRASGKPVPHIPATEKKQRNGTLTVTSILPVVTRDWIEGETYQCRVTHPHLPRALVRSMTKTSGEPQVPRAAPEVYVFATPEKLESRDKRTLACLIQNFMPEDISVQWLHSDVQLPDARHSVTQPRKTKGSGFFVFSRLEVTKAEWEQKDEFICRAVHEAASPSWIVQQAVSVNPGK

[3] = tested on: Immunoglobulin E (IgE) (Homo sapiens), P01854-1; test: FP_none; conditions: 2'-OMe G2 and all C,U, rest 2'-deoxy, 3' idT [2'-OMe at 2,3,4,5,11,12,13,15,22,23, 3'-idT at 24]
[4] = tested on: Immunoglobulin E (IgE) (Homo sapiens), P01854-1; test: inhibition
[5] = target: T2, Immunoglobulin E (IgE), cynomolgus (Macaca fascicularis) (UniProt A0A7N9DC98); test: inhibition; conditions: 2'-F C,U; no inhibition of monkey IgE-FceR1 up to 1 uM
T2 sequence: T1 sequence

[6] = tested on: Immunoglobulin E (IgE) (Homo sapiens), P01854-1; test: FP; conditions: 2'-F C and U; nitrocellulose dot blot filter, not fluorescence; biphasic, KD2 12.5 nM; 1xSHMCK + 0.1 mg/mL tRNA, RT
[7] = dRmY: 2'-deoxy A,G, 2'-OMe C,U, 1xPBS, BSA, tRNA, ssDNA, 25 C
[8] = 2'-OMe C,U, deoxy A,G, FACS, 15 nM IgE
[9] = 3' idT, no inhibition of monkey IgE:FceR1a-Fc up to 250 nM

Chain of Immunoglobulin E (IgE) (Homo sapiens), P01854-1 (P01854 other isoform, or with tags, fused parts or gaps): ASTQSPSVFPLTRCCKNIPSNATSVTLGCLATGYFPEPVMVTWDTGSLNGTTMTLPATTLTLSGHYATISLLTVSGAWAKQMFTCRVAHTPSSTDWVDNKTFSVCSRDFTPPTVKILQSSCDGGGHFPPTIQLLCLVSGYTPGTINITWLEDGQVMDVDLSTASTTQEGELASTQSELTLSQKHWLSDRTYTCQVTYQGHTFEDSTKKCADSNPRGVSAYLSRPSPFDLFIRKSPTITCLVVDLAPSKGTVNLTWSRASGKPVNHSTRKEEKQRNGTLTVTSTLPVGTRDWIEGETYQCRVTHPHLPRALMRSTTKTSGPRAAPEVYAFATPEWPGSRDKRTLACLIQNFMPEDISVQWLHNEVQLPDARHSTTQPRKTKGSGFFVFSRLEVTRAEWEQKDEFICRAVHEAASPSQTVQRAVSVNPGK

AGCCUGGGGACCCAUGGGGGGCU [ARC445]
Kd ([1]; dRmY: 2'-deoxy A,G, 2'-OMe C,U, dPBS Ca/Mg + 0.1 mg/mL BSA, RT, 22 nM in PBS with tRNA + ssDNA (Table 10)): 3 nM | IC50 ([2]; dRmY: 2'-deoxy A,G, 2'-OMe C,U, ELISA, monkey IgE:FceR1a-Fc, human IC50 63 nM in same assay): 161 nM

AGCCUGGGGACCCAUGGGGGGCU [ARC1251]
Kd [3]: 7 nM

AGCCUGGGGACCCAUGGGGGGCU [ARC1643]
Kd ([1]; 2'-OMe/2'-deoxy mix, dI20, PS, 3' idT [20=dI (G parent), 24=3' inverted dT, phosphorothioate linkage N's left out (5^6, 7^8, 8^9, 15^16, 17^18, 18^19, 19^20, 20^21)], DPBS Mg/Ca, 0.1 mg/mL BSA, RT): 1.1 nM | IC50 ([4]; 2'-OMe/2'-deoxy mix, dI20, PS, 3' idT [20=dI (G parent), 24=3' inverted dT, phosphorothioate linkage N's left out (5^6, 7^8, 8^9, 15^16, 17^18, 18^19, 19^20, 20^21)], FACS, 2.5 nM IgE): 8 nM

AGCCUGGGGACCCAUGGGGGGCU [ARC1644]
Kd ([1]; 2'-OMe/2'-deoxy mix, dI16,dI20, PS, 3' idT [16=dI, 20=dI (G parent), 24=3' inverted dT, phosphorothioate linkage N's left out (5^6, 7^8, 8^9, 15^16, 17^18, 18^19, 19^20, 20^21)], DPBS Mg/Ca, 0.1 mg/mL BSA, RT): 1.7 nM | IC50 ([4]; 2'-OMe/2'-deoxy mix, dI16,dI20, PS, 3' idT [16=dI, 20=dI (G parent), 24=3' inverted dT, phosphorothioate linkage N's left out (5^6, 7^8, 8^9, 15^16, 17^18, 18^19, 19^20, 20^21)], FACS, 2.5 nM IgE): 5.2 nM

AGCCUGGGGACCCAUGGGGGGCU [ARC1666]
Kd ([1]; mAmGmCmCmUdGmGdG-s-dGmAmCmCmCmAmU-s-dI-s-mGdI-s-dGdI-s-dGmCmU-3T [2'-OMe 1-5,7,10-15,17,22,23, dI16,dI18,dI20 (inosine, parent base G), phosphorothioate 8/9,15/16,16/17,18/19,20/21 (N linkage letters left out), 3' inverted dT24], dPBS Ca/Mg + BSA, RT, 0.06 nM in Table 23): 0.035 nM | IC50 ([2]; mAmGmCmCmUdGmGdG-s-dGmAmCmCmCmAmU-s-dI-s-mGdI-s-dGdI-s-dGmCmU-3T [2'-OMe 1-5,7,10-15,17,22,23, dI16,dI18,dI20 (inosine, parent base G), phosphorothioate 8/9,15/16,16/17,18/19,20/21 (N linkage letters left out), 3' inverted dT24], ELISA, monkey IgE:FceR1a-Fc, human IC50 5 nM in same assay): 8 nM

AGCCUGGGGACCCAUGGGGGGCU [ARC1667]
Kd ([1]; 2'-OMe/2'-deoxy mix, dI18,dI20, PS as printed, 3' idT [18=dI, 20=dI (G parent), 24=3' inverted dT, phosphorothioate linkage N's left out], DPBS Mg/Ca, 0.1 mg/mL BSA, RT): 0.4 nM | IC50 ([4]; 2'-OMe/2'-deoxy mix, dI18,dI20, PS as printed, 3' idT [18=dI, 20=dI (G parent), 24=3' inverted dT, phosphorothioate linkage N's left out], FACS, 2.5 nM IgE): 2.3 nM

AGCCUGGGGACCCAUGGGGGGCU [ARC1728]
Kd ([1]; 2'-OMe/2'-deoxy mix, dI, PS, 3' idT [18=dI, 20=dI (G parent), 24=3' inverted dT, phosphorothioate linkage N's left out (5^6, 7^8, 8^9, 15^16, 17^18, 18^19, 19^20, 20^21)], DPBS Mg/Ca, 0.1 mg/mL BSA, RT): 2.3 nM | IC50 ([4]; 2'-OMe/2'-deoxy mix, dI, PS, 3' idT [18=dI, 20=dI (G parent), 24=3' inverted dT, phosphorothioate linkage N's left out (5^6, 7^8, 8^9, 15^16, 17^18, 18^19, 19^20, 20^21)], FACS, 2.5 nM IgE): 13.2 nM

AGCCUGGGGACCCAUGGGGGGCU [ARC1729]
Kd ([1]; 2'-OMe/2'-deoxy mix, dI16,dI18,dI20, PS as printed, 3' idT [16=dI, 18=dI, 20=dI (G parent), 24=3' inverted dT, 2'-OMe at 1-5,7,10-15,17,22,23, phosphorothioate linkage N's left out (5^6, 7^8, 8^9, 15^16, 17^18, 18^19, 19^20, 20^21)], DPBS Mg/Ca, 0.1 mg/mL BSA, RT): 1 nM | IC50 ([4]; 2'-OMe/2'-deoxy mix, dI16,dI18,dI20, PS as printed, 3' idT [16=dI, 18=dI, 20=dI (G parent), 24=3' inverted dT, 2'-OMe at 1-5,7,10-15,17,22,23, phosphorothioate linkage N's left out (5^6, 7^8, 8^9, 15^16, 17^18, 18^19, 19^20, 20^21)], FACS, 2.5 nM IgE): 2.9 nM

AGUUCUGGGGACCCAUGGGGGAACU [ARC443]
Kd [1, 7]: 55 nM | IC50 [4, 8]: 30.2 nM

GCCUGGGGACCCAUGGGGGGC [ARC444]
Kd [1, 7]: 73 nM | IC50 [4, 8]: 52.4 nM

GGAAAAGCGAAUCAUACACAAGAGUCGCGAUAGAUUGCUUGUGAAUGGUUUUGGUGGAAGCGGGCUCCGCCAGAGACCAACCGAGAA [rRfY clone SEQ 12]
Kd ([1]; 2'-F C and U, biphasic, KD2 9.85 nM, 1xSHMCK + 0.1 mg/mL tRNA, RT): 0.057 nM | IC50 ([4]; 2'-F C,U, ELISA FceR1-Fc, FACS 7.1 nM (Table 25)): 5 nM

GGAAUCAUACACAAGACGUCGCCAGAUUGAGUGUCGUGGUUCC [rRfY minimer SEQ 91]
Kd ([1]; 2'-F C and U, KD2 36.9 nM, 1xSHMCK + tRNA): 0.56 nM | IC50 ([4]; 2'-F C,U, FACS, 15 nM IgE): 3.8 nM

GGAGAUCCGAGGGUGGGCAAUAGGCUCACAAGGGUUU [rRfY minimer SEQ 93]
Kd ([1]; 2'-F C and U, KD2 17.1 nM, 1xSHMCK + tRNA): 0.65 nM | IC50 [5]: > 1000 nM | IC50 ([4]; 2'-F C,U, FACS, 15 nM IgE): 12.5 nM

GGCGGCAGCTTTATCCGTACCTCCCAGTGGGCTGCTCC [DNA clone SEQ 149 with 3' idT]
IC50 [2, 9]: > 250 nM

GGCGGCAGCTTTATCCGTACCTCCCAGTGGGCTGCTCC [DNA clone SEQ 149]
Kd [1]: 0.8 nM | IC50 ([4]; FACS, 15 nM IgE): 55.9 nM

GGGAAAAGCGAAUCAUACACAAGACGUCAGUAAGAUUGAGUGUAUGGUUCCUGGUGGACAAUAAUGGCUCCGCCAGAGACCAACCGAGAA [rRfY clone SEQ 21]
Kd ([1]; 2'-F C and U, biphasic, KD2 27.1 nM, 1xSHMCK + tRNA, RT): 0.183 nM | IC50 ([4]; 2'-F C,U, ELISA FceR1-Fc, FACS 14.4 nM (Table 25)): 3.7 nM

GGGAAAAGCGAAUCAUACACAAGACGUCGCCAGAUUGAGUGUCGUGGUU [rRfY minimer SEQ 90]
Kd ([1]; 2'-F C and U, KD2 28.2 nM, 1xSHMCK + 0.1 mg/mL tRNA): 0.33 nM | IC50 [5]: > 1000 nM

GGGAAAAGCGAAUCAUACACAAGACGUCGCCAGAUUGAGUGUCGUGGUUCGGGUUGAGGCGGAAGCUCCGCCAGAGACCAACCGAGAA [rRfY clone SEQ 11]
Kd [6]: 0.144 nM | IC50 ([4]; 2'-F C,U, ELISA FceR1-Fc, FACS 14 nM (Table 25)): 2.6 nM

GGGAAAAGCGAAUCAUACACAAGAGGUCUUACAGAUCCUGUGUAGUGGUUCGAUACAUGCGGGGCUCCGCCAGAGACCAACCGAGAA [rRfY clone SEQ 14]
Kd ([1]; 2'-F C and U, biphasic, KD2 99.5 nM, 1xSHMCK + tRNA, RT): 1.08 nM | IC50 ([4]; 2'-F C,U, ELISA FceR1-Fc, FACS 17.3 nM (Table 25)): 26.8 nM

GGGAAAAGCGAAUCAUACACAAGAGUCGCUAGAUUGCUAGUGUAUGGUUUAUCUAAAGGCGGCCGCUCCGCCAGAGACCAACCGAGAA [rRfY clone SEQ 13]
Kd ([1]; 2'-F C and U, biphasic, KD2 14.6 nM, 1xSHMCK + tRNA, RT): 0.139 nM | IC50 ([4]; 2'-F C,U, ELISA FceR1-Fc, FACS 10.3 nM (Table 25)): 4.3 nM

GGGAAAAGCGAAUCAUACACAAGAGUGCCGAGGCAUUGCUUGGUAUGGUUCCGGUCUUGUCGGGGCUCCGCCAGAGACCAACCGAGAA [rRfY clone SEQ 19]
Kd ([1]; 2'-F C and U, biphasic, KD2 17.4 nM, 1xSHMCK + tRNA, RT): 0.095 nM | IC50 ([4]; 2'-F C,U, ELISA FceR1-Fc, FACS 9.9 nM (Table 25)): 7.4 nM

GGGAAAAGCGAAUCAUACACAAGAUCCGAGGGUGGGCAAUAGGCUCACAAGGGUUUCGCGUGAUGCUCCGCCAGAGACCAACCGAGAA [rRfY clone SEQ 18]
Kd ([1]; 2'-F C and U, biphasic, KD2 27.3 nM, 1xSHMCK + tRNA, RT): 1.14 nM | IC50 ([4]; 2'-F C,U, ELISA FceR1-Fc, FACS 35 nM (Table 25)): 51.3 nM

GGGGCTACTTTATCCGTACCTCCCAGTGGGTAGCCCC [ARC476]
Kd [1]: 0.2 nM | IC50 ([4]; FACS, 15 nM IgE): 17.4 nM

GGGGCTACTTTATCCGTCCCTCCTAGTGGGTAGCCCC [ARC475 with 3' idT]
IC50 [2, 9]: > 250 nM

GGGGCTACTTTATCCGTCCCTCCTAGTGGGTAGCCCC [ARC475]
Kd [1]: 0.5 nM | IC50 ([4]; FACS, 15 nM IgE): 17.1 nM

GGGGCTACTTTATCCGTTCCTCCTAGTGGGTAGCCCC [ARC480]
Kd [1]: 0.2 nM | IC50 ([4]; FACS, 15 nM IgE): 9.7 nM

GGGGCTACTTTATCCGTTCCTCTTAGTGGGTAGCCCC [ARC479]
Kd [1]: 0.4 nM | IC50 ([4]; FACS, 15 nM IgE): 14.4 nM

GUUCUGGGGACCCAUGGGGGAAC [ARC442]
Kd ([1]; dRmY: 2'-deoxy A,G, 2'-OMe C,U, 1xPBS, BSA, 1 mg/mL tRNA, ssDNA, 25 C): 174 nM | IC50 [4, 8]: 58.9 nM

UAGCCUGGGGACCCAUGGGGGGCUA [ARC446]
Kd [1, 7]: 43 nM | IC50 [4, 8]: 33.8 nM
